Laboratory results as given in patent US20220347267A1, “METHODS TO IMPROVE PATIENT RESPONSE TO IMMUNE CHECKPOINT INHIBITORS AND FUNCTIONAL TESTS TO PREDICT RESPONSE” (Biomarker Strategies, LLC, priority 2019, published 2022).

Experiments:
Format in all cases: cell-based, human
H1299 cells = experiment: PD-L1 mRNA one step RT-qPCR, IFNγ treatment; details: 10 ng/mL IFNγ for 24h, 2^-ΔΔCt normalized by GAPDH
Method: (§1) Additionally, the presence, abundance and ratio of different PD-L1 mRNA forms can be used to predict response. As way of example, PD-L1 mRNA were measured using primers amplifying within exon 3-4 (extracellular region of the transcribed protein that interacts with PD1). Other amplicons detecting the same or other forms can be used readily. For example, amplicons corresponding to the transmembrane and cytoplasmic tail to confirm full length plasma membrane bound protein is transcribed, or regions overlapping with either PD1 or anti-PD-L1 binding sites. Five cell lines (H460, H1299, H1650, H2126 and SKMES1) were treated with vehicle or 10 ng/mL IFNγ for 24h. More complex sample types, including cells isolated from solid tumors from preclinical and clinical cancers be used. Other time points, including those as early as 1h for IRF or 4h for PD-L1, can be readily used. RNA was isolated from the cells using an NEB kit (Cat #T2010) per the manufacturer's instructions. Isolated RNA was estimated using a NanoDrop […] and checked for its quality by checking the 260/280 ratio. RNA concentration was brought to 40 ng/uL in all the samples to take equal quantity for further steps of RT and real time PCR. One step RT-qPCR was performed using a Power SYBR Green RNA to Ct One step kit (Cat #4931198) as per the manufacturer's instructions. A 200 ng RNA template was taken for total 20 uL reaction per well in 96 well PCR microplate for Roche 480 Light cycler. The following primer pairs (Sigma) were used for PD-L1 and GAPDH and were used at a concentration in the reaction mixture of 400 nM:
(§2) A Roche 480 Light cycler was used for performing the one step real time PCR. Data was analyzed using 2^-ΔΔCt method normalized by GAPDH for relative levels. Alternative housekeeper genes may be readily used.

H1650 cells = experiment: PD-L1 mRNA one step RT-qPCR, IFNγ treatment; details: 10 ng/mL IFNγ for 24h, 2^-ΔΔCt normalized by GAPDH
Method: as §1, §2

H2126 cells = experiment: PD-L1 mRNA one step RT-qPCR, IFNγ treatment; details: 10 ng/mL IFNγ for 24h, normalized by GAPDH
Method: as §1, §2

H460 cells = experiment: PD-L1 mRNA one step RT-qPCR, IFNγ treatment; details: 10 ng/mL IFNγ for 24h, normalized by GAPDH
Method: as §1, §2

SKMES1 cells = experiment: PD-L1 mRNA one step RT-qPCR, IFNγ treatment; details: 10 ng/mL IFNγ for 24h, normalized by GAPDH
Method: as §1, §2

H292 cells = experiment: PD-L1 western blot after modulators (EM and MTAs); details: NSCLC H292, 30 minutes, 3 hours, 24 hours
Text: (§3) Cell lines were acquired from ATCC, Sigma, or DSMZ. Human non-small cell lung carcinoma (NSCLC) cell lines H292 (ATCC no. CRL-1848.), H1299 (ATCC no. CRL-5803), H520 (ATCC no. CRL-5811), CALU6 (ATCC no. HTB-56), H1975 (ATCC no. CRL-5908), H460 (ATCC no. HTB-177), H2126 (ATCC no. CCL-256), H1650 (ATCC no. CRL-5883), and H2087 (ATCC no. CRL-5922) were used for this experiment along with head and neck squamous cell carcinoma (HNSCC) cell lines BHY (DSMZ ACC 404), CAL27 (ATCC no. CRL-2095), KYSE410 (Sigma), and A253 (ATCC no. HTB-41), melanoma cell lines A375 (ATCC no. CRL-1619), COL0853 (Sigma), and MM127 (Sigma) pancreatic cancer cell lines BXPC3 (ATCC no. CRL-1687), colorectal cancer cell lines […], HCT116 (ATCC no. CCL-247EMT), and breast cancer cell lines BT549 (ATCC no. HTB-122), BT20 (ATCC no. HTB-19), and T47D (ATCC no. HTB-133). Cells were maintained in manufacturer-recommended conditions at 37° C. inside humidified 5% CO2 incubators. Sub-cultivation and harvesting for all cell lines were performed using Accutase (GIBCO Life Technologies; cat. no. A1110501) at 37° C. for 10 minutes. Cell viability was measured using trypan blue exclusion staining in conjunction with the Countess II Automated Cell Counter (Thermo Fischer Scientific; cat. no. AMQAX1000). Measurements were made in duplicate and the average number of viable cells was recorded prior to experiments.
(§4) T7039), and IL-10 (50 ng/ml; Sigma Aldrich cat. no. SRP3071) were administered to cell lines for various times including 30 minutes, 3 hour, and 24 hour time intervals prior to cell lysis and protein extraction.
(§5) To determine the effects of the aforementioned molecules on the modulation of PD-L1, we selected various NSCLC, HNSCC, breast cancer, melanoma, colorectal cancer, and pancreatic cancer cell lines as examples. Other diseases or cell lines could be used readily as could more complex samples such as cells isolated from xenografts and clinical samples. Cells were plated, for three different time points (30 minutes, 3 hours, and 24 hours), inside 6-well petri dishes with 2 mL of appropriate medium. Plates were incubated for 24 hours in 5% CO2 incubators at 37° C. After 24 hours, each 6-well plate was washed with PBS (Gibco Life Technologies, cat. no. 10010023) followed by fresh media being added along with each cell line's vehicle control or appropriate modulator for each specific time point, and were placed in CO2 incubators until their modulation time point was reached. Other conditions can be readily used, such as processing on automated systems such as SnapPath. At the end of each time point, while keeping plates on ice, cell lysis was conducted by aspirating culture medium from each plate, washing of each plate three times with 5 ml of cold PBS (Gibco Life Technologies, cat. no. 10010023) and culminated with the addition of cold 1× lysis buffer containing (Cell Signaling, cat. no. 9803 S) protease inhibitor cocktail (Cell Signaling, cat. no. 5871S), phosphatase inhibitor cocktail (Cell Signaling, cat. no. 5870S), and PMSF (Fisher Scientific, cat. no. ICN19538101). Plates were then placed on ice for ten minutes, swirling each plate intermittently. Aliquots of protein lysates were prepared and then stored at −80° C. until protein quantification and Western blot analysis was to be conducted. The protein concentration of each lysate was analyzed by using the Pierce 660 Protein Assay Reagent (Thermo Fisher Scientific, cat. no. 22660) and testing of each sample was conducted in duplicate. Two μg of protein was then loaded per lane into 10% Midi-PROTEAN TGX Precast Gels (Bio Rad, cat. no. 5671034) along with Kaleidoscope Prestained Protein Standard (BioRad, cat. no. 1610375) which ran at 220V for 45 minutes. Proteins were transferred to mini-PVDF membranes (BioRad, cat. no. 1704156) in 3 minutes using the Trans-Blot Turbo Transfer System (BioRad, cat. no. 1704150EDU).

[1] = tested on: various NSCLC, HNSCC, breast cancer, melanoma, colorectal cancer, and pancreatic cancer cell lines; experiment: PD-L1 western blot after modulators, summary over all samples; details: depending on the sample, summary of Table 3
Text: as §3, §4, §5

B1: IFNγ: human IFNγ, modulator (10 ng/ml; Sigma Aldrich) (protein, UniProt P01579 24-161, looked up)
Interferon gamma: QDPYVKEAENLKKYFNAGHSDVADNGTLFLGILKNWKEESDRKIMQSQIVSFYFKLFKNFKDDQSIQKSVETIKEDMNVKFFNSNKKKRDDFEKLTNYSVTDLNVQRKAIHELIQVMAELSPAAKTGKRKRSQMLFRG
- relative increase of PD-L1 mRNA upon IFNγ exposure (H1299 cells): 1.7 fold
- relative increase of PD-L1 mRNA upon IFNγ exposure (H1650 cells): 2.2 fold
- change of PD-L1 mRNA upon IFNγ exposure (H2126 cells): decrease
- change of PD-L1 mRNA upon IFNγ exposure (H460 cells): decrease
- change of PD-L1 mRNA upon IFNγ exposure (SKMES1 cells): no change
- PD-L1 Response (H292 cells): Up
- regulation of PD-L1 across samples [1]: only led to upregulation
